# Data reported in patent US6663869B1, “Polyoxime compounds and their preparation” (Gryphon Therapeutics, Inc., priority 1993, dated 2003).
# The star is where a group is joined. aminooxyacetyl = NOCC(=O)*
# What was measured:
# B16-F1 melanoma cells = assay: in situ melanin assay (Bagutti 1992); assay type: cell-based; details: relative to full-length hormone
# Experimental: The biological activity of MSH can be measured, for example, with an in situ melanin assay in which the peptide is tested for stimulation of B16-F1 melanoma cells (Bagutti 1992).
# The binding and potency of some alpha-melanocyte stimulating hormone analog polyoximes were determined. Relative binding in the binding assay using mouse melanoma cells (Bagutti (1992)) refers to the average dissociation constant (Kd) for full-length natural hormone divided by the Kd for our oxime analog. Relative potency in the melanin assay (Bagutti (1992)) refers to the ratio of the concentrations (giving 50% of maximum effect) of full-length hormone and that of analog. Results with the analog of alpha-MSH, Nle-Asp-His-(D)Phe-Arg-Trp-Lys-amide, are provided.
# [1] = storage stability as a powder at −20° C.; assay type: physicochemical
# Experimental: Solvent was removed by vacuum centrifugation (Speed-Vac; Savant Instruments) without heating. […] Similar methods were used to prepare octa-GXL-baseplate (SEQ ID NO: 9).
# The hexa-AOA-baseplate product (SEQ ID NO: 5) eluted during the isocratic elution at 5% B. The product eluted as a single peak on analytical RP-HPLC. The mass was determined by ESI-MS to be 1325.49+/−0.38 daltons as compared to the calculated mass of 1325.4 daltons. […] The storage vial was kept tightly sealed and volatile aldehydes were excluded.
# Following solvent removal by vacuum centrifugation, the AOA-TCTP sample (SEQ ID NO: 4) was characterized by ESI-MS. The molecular weight of the sample was determined to be 1542.57+/−1.14 daltons, as compared to the expected value of 1541.73 daltons. The reaction yielded 120 mg AOA-TCTP from 1.3 g. AOA-polypeptidyl resin.
# [2] = assay type: physicochemical; details: pH 7
# mouse melanoma cells = details: even when modified at the alpha-amino group and when linked as a homodimer (Bagutti et al. 1992); cited from earlier work
Substance,storage stability [1],other results
control monooxime: aminooxyacetyl Nle-Asp-His-(D)Phe-Arg-Trp-Lys-amide oximated with acetaldehyde,–,relative potency (ratio of concentrations giving 50% of maximum effect of full-length hormone and analog) (B16-F1 melanoma cells): 1.78
NH2OCH2CO-Lys-Leu-Glu-Glu-Gln-Arg-Pro-Glu-Arg-Val-Lys-Gly-OH (aminooxyacetyl-KLEEQRPERVKG-OH; SMILES CC(C)C[C@H](NC(=O)[C@H](CCCCN)NC(=O)CON)C(=O)N[C@@H](CCC(=O)O)C(=O)N[C@@H](CCC(=O)O)C(=O)N[C@@H](CCC(N)=O)C(=O)N[C@@H](CCCNC(=N)N)C(=O)N1CCC[C@H]1C(=O)N[C@@H](CCC(=O)O)C(=O)N[C@@H](CCCNC(=N)N)C(=O)N[C@H](C(=O)N[C@@H](CCCCN)C(=O)NCC(=O)O)C(C)C) [AOA-TCTP COSM],stable for at least several months,–
"acetyl-Asp-Cys-Thr-Leu-Ile-Asp-Ala-Leu-Leu-Gly-Asp-Pro-His-amide (XCTLIDALLGDPX; N-terminal acetyl, C-terminal amide)",–,oxidized to the disulfide dimer [2]: about 30%
NH2OCH2CO-ELGGGPGAGSLQPLALEGSLQKR-OH (aminooxyacetyl-ELGGGPGAGSLQPLALEGSLQKR-OH; SMILES CC(C)C[C@H](NC(=O)[C@H](C)NC(=O)[C@H](CC(C)C)NC(=O)[C@@H]1CCCN1C(=O)[C@H](CCC(N)=O)NC(=O)[C@H](CC(C)C)NC(=O)[C@H](CO)NC(=O)CNC(=O)[C@H](C)NC(=O)CNC(=O)[C@@H]1CCCN1C(=O)CNC(=O)CNC(=O)CNC(=O)[C@H](CC(C)C)NC(=O)[C@H](CCC(=O)O)NC(=O)CON)C(=O)N[C@@H](CCC(=O)O)C(=O)NCC(=O)N[C@@H](CO)C(=O)N[C@@H](CC(C)C)C(=O)N[C@@H](CCC(N)=O)C(=O)N[C@@H](CCCCN)C(=O)N[C@@H](CCCNC(=N)N)C(=O)O) [AOA-Pep C COSM],stable for at least several months,–
Nle-Asp-His-(D-Phe)-Arg-Trp-Lys,–,binding to melanoma cells (mouse melanoma cells): binds to melanoma cells
OCH—CO-Gly3-[Lys(COCHO)]5-Gly-OH [hexa-GXL-baseplate],stable for at least several weeks,–
"Ser-TCTP precursor COSM: TCTP 12-mer peptide with added N-terminal serine, SEQ ID NO: 2 (SKLEEQRPEVKG)",stable indefinitely,–
